Measured values reported in patent US9492510B2, “Composition and method for inhibiting tumor cell growth” (St. Jude Children's Research Hospital, priority 2006, dated 2016).

Tested on: U373MG cells
Assay: Growth inhibition by CPT-11 of U373MG cells
Format: cell-based, human
Settings: U373MG cells expressing intracellular (u373IRESmut6) or secreted (U373IRESmut6C) form, FIG. 4
Description: Experiments were also performed in human brain tumor cells (U373MG) where the growth of the cells was examined in cells that expressed the mutant form of the human CE enzyme.
Experiments were also performed to determine whether cells expressing a secreted form of hCElm6 (SEQ ID NO:16) produced media that had CE activity.
Transfection of Cell Lines. Transient transfection of Cos7 cells was achieved by electroporation (Potter, et al. 1998. Cancer Res. 52:2646-2651). For the generation of stable cell lines, cDNAs were ligated into pIRESneo and U373MG cells were electroporated under similar conditions. Transfectants were selected in media containing 400 μg/ml of G418. Since the CE cDNA was linked via an internal ribosome entry sequence (IRES) to the neomycin gene, selection of individual G418-resistant clones was not necessary.
Construction of Adenovirus. Replication-deficient adenovirus expressing hCElm6 or rCE were constructed using standard protocols (Wierdl, et al. 2001. Cancer Res. 61:5078-5082). Multiplicity of infection (moi) was defined as the number of plaques produced in 1×10^6 293 cells in a total volume of 1 ml of media after incubation with virus for 1 hour.
Growth Inhibition Assays.

B1: secreted form of hCE1mut6: mutant human CE lacking the six C-terminal amino acid residues (Thr-Glu-His-Ile-Glu-Leu); expressed from pIRESmut6C (protein)
chain: MWLRAFILATLSASAAWGHPSSPPVVDTVHGKVLGKFVSLEGFAQPVAIFLGIPFAKPPLGPLRFTPPQPAEPWSFVKNATSYPPMCTQDPKAGQLLSELFTNRKENIPLKLSEDCLYLNIYTPADLTKKNRLPVMVWIHGGGLMVGAASTYDGLALAAHENVVVVTIQYRLGIWGFFSTGDEHSRGNWGHLDQVAALRWVQDNIASFGGNPGSVTIFGESAGGESVSVLVLSPLAKNLFHRAISESGVALTSVLVKKGDVKPLAEQIAITAGCKTTTSAVMVHCLRQKTEEELLETTLKMKFLSLDLQGDPRESQPLLGTVIDGMLLLKTPEELQAERNFHTVPYMVGINKQEFGWIIPMQMLGYPLSEGQLDQKTAMSLLWKSYPLVCIAKELIPEATEKYLGGTDDTVKKKDLFLDLIADVMFGVPSVIVARNHRDAGAPTYMYEYRYRPSFSSDMRPKTVIGDHGDELFSVFGAPFLKEGASEEEIRLSKMVMKFWANFARNGNPNGEGLPHWPEYNQKEGYLQIGANTQAAQKLKDKEVAFWTNLFAKKAVEKPPQ
modifications: Synthethic mutant human carboxylesterase
notes: mutant human CE lacking the six C-terminal amino acid residues (Thr-Glu-His-Ile-Glu-Leu); expressed from pIRESmut6C
  fold reduction in the IC50 value for CPT-11: ~130 fold
